B1: ZNF649 (parent)
chain: DECEKAYFYMSCLVKHKRIHSREK

Variants of: B1
Assay: protein stability index of a GFP-peptide fusion (GPS, HEK-293T) (PSI 1-6); higher = more stable
Conditions: c terminus: a fixed tail appended
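Note: lentivirally expressed fusions sorted by FACS into six bins by GFP to DsRed ratio, PSI derived from sequencing read proportions per bin multiplied by bin number.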

Protein stability index: each site, then its substitutions
C12: K 2.8, L 2.23, D 4.16, H 3.12, R 2.96, P 3.05, W 2.33, M 2.95, N 3.38, F 2.69, S 3.68, V 2.42, I 1.64, T 3.83, A 2.83, E 3.54, Y 2.43, G 3.33, Q 3.09
L13: F 3.18, P 3.1, M 3.25, D 4.25, Y 2.21, K 2.68, C 3.27, G 3.24, T 2.81, E 3.61, I 2.29, R 2.15, S 2.79, V 2.98, Q 2.99, H 2.95, A 3.07, W 3.19, N 3.65
Y7: C 3.25, R 3.55, A 3.53, H 3.35, F 2.88, M 2.19, L 2.26, N 3.61, I 2.23, K 3.57, G 3.38, E 3.7, W 2.25, Q 3.99, V 2.68, S 3.3, T 3, D 4.07, P 3.54
A6: T 2.55, V 1.96, Y 1.76, R 2.35, W 2.03, S 3.04
K15: L 2.15, F 1.87, H 2.45, A 2.56, G 2.29, D 3.24, E 2.54, I 2.18, C 2.41
Y9: S 3.56, W 3.49, R 3.9, V 2.54, F 2.66, A 3.71, M 2.57, P 3.78, C 2.81, T 3.94, E 3, D 4.51, Q 3, K 3.73, G 4.26, I 2.42, H 3.03, L 2.35, N 3.93
M10: T 3.19, D 3.97, Q 4.12, S 3.19, H 3.47, Y 3.11, I 1.86, L 2.19, K 3.74, R 3.32, F 2.33, E 3.92, P 3.16, V 2.38, N 4.14, G 2.56, C 2.75, W 2.36, A 3.61
V14: D 3.73, M 2.18, Q 3.05, P 3.27, N 3.53, F 1.78, W 1.64, K 3.41, G 2.9, R 3.12, H 3.86, A 2.88, I 2.11, E 3.38, Y 2.5, S 3.65, C 2.33, L 2.63, T 3.09
S11: A 2.07, F 1.66, W 1.33, L 1.74, K 2, G 3.21, M 2.37, N 2.97, Y 2.68, I 1.76, Q 3.03, H 2.82, C 2.13, E 2.62, T 2.94, P 3.24, R 2.47, D 3.55, V 1.87
F8: P 4.1, N 3.7, M 3.36, E 4.18, I 2.67, Y 2.65, D 3.88, V 3.23, A 3.44, H 3.79, S 3.78, K 3.6, C 2.96, G 4.02, L 2.48, T 3.52, Q 3.75, R 2.82, W 3.07
